Paper PMC13105642

Target: Antibody_82-M1
Assay: SPR; Biacore 8K; antibody captured on a Protein G chip; gradient concentrations of LONP1 as analyte; 1x HBS-EP buffer; fitted to a 1:1 binding model

Chain of Antibody_82-M1 (heavy, as listed by the source, chain 1 of 2): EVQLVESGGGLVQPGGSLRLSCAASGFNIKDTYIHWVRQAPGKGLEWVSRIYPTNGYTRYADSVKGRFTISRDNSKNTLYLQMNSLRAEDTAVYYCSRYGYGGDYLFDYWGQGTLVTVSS
Chain of Antibody_82-M1 (light, as listed by the source, chain 2 of 2): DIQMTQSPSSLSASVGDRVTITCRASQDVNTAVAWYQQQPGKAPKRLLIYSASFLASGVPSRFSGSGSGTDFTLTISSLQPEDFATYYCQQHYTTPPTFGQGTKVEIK

Kd: 0.829 nM
koff: 0.000151 s⁻¹
kon: 182000 M⁻¹ s⁻¹
B1: Lon Peptidase 1 (LONP1) (enzyme)
chain: FWEASSRGGGAFSGGEDASEGGAEEGAGGAGGSAGAGEGPVITALTPMTIPDVFPHLPLIAITRNPVFPRFIKIIEVKNKKLVELLRRKVRLAQPYVGVFLKRDDSNESDVVESLDEIYHTGTFAQIHEMQDLGDKLRMIVMGHRRVHISRQLEVEPEEPEAENKHKPRRKSKRGKKEAEDELSARHPAELAMEPTPELPAEVLMVEVENVVHEDFQVTEEVKALTAEIVKTIRDIIALNPLYRESVLQMMQAGQRVVDNPIYLSDMGAALTGAESHELQDVLEETNIPKRLYKALSLLKKEFELSKLQQRLGREVEEKIKQTHRKYLLQEQLKIIKKELGLEKDDKDAIEEKFRERLKELVVPKHVMDVVDEELSKLGLLDNHSSEFNVTRNYLDWLTSIPWGKYSNENLDLARAQAVLEEDHYGMEDVKKRILEFIAVSQLRGSTQGKILCFYGPPGVGKTSIARSIARALNREYFRFSVGGMTDVAEIKGHRRTYVGAMPGKIIQCLKKTKTENPLILIDEVDKIGRGYQGDPSSALLELLDPEQNANFLDHYLDVPVDLSKVLFICTANVTDTIPEPLRDRMEMINVSGYVAQEKLAIAERYLVPQARALCGLDESKAKLSSDVLTLLIKQYCRESGVRNLQKQVEKVLRKSAYKIVSGEAESVEVTPENLQDFVGKPVFTVERMYDVTPPGVVMGLAWTAMGGSTLFVETSLRRPQDKDAKGDKDGSLEVTGQLGEVMKESARIAYTFARAFLMQHAPANDYLVTSHIHLHVPEGATPKDGPSAGCTIVTALLSLAMGRPVRQNLAMTGEVSLTGKILPVGGIKEKTIAAKRAGVTCIVLPAENKKDFYDLAAFITEGLEVHFVEHYREIFDIAFPDEQAEALAVER
